Experimental data published in paper PMC8431494.

Molecular target: BST-2 with N-terminal SmBiT (UniProt Q10589)
Assay: split reporter (BiFC, NanoBiT); HEK293T cells in 96-well plates co-transfected 1:1 with plasmids for the Vpu and BST-2 LgBiT/SmBiT fusions; Nano-Glo Live Cell Substrate added, luminescence read in live cells; negative control HaloTag with SmBiT

Chain of Vpu with C-terminal LgBiT (P05919 whole entry): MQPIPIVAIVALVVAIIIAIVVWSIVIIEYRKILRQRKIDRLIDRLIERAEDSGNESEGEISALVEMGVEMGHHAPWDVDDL
Chain of UniProt Q10589 (Q10589 1-161): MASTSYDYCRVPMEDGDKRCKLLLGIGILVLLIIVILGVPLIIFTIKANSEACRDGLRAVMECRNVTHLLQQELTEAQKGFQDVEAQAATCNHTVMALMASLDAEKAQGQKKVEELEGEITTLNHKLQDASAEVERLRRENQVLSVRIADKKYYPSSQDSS

“Vpu with C-terminal LgBiT (from UniProt P05919 1-82) (natural protein)” was tested. Which fold luminescence over control 15 min after adding substrate did it give?
The fold luminescence over control 15 min after adding substrate was 100 fold.

What about the fold luminescence over control (Vpu with C-terminal LgBiT and HaloTag with SmBiT) of the same substance?
The fold luminescence over control (Vpu with C-terminal LgBiT and HaloTag with SmBiT) was 95 fold.
